Patent publication US20170320928A1 (WISCONSIN ALUMNI RESEARCH FOUNDATION, published 2017)
Like-named read-outs stand apart in the source and are kept apart here. Values belong to the binder of their own block, whether it stands above or below them. Square brackets hold non-standard residues; d marks the D form. Primed or numbered codes have the meaning given here. Ends that are not written are not given here. ACPC = cyclic β-residue replacing an α-residue; APC = 3-aminopyrrolidine-4-carboxylic acid; ACPC″ = not defined here; APC″ = not defined here; Aib = CC(C)(N)C(=O)O

What was measured:
Assay in all cases: cell-based or functional assay
human GLP-1 receptor [1] = target: T1, human GLP-1 receptor (human, UniProt P43220 24-463)
human GLP-1 receptor [2] = target: T1, human GLP-1 receptor; remark: listed apart in the source
human GLP-1 receptor [3] = target: T1, human GLP-1 receptor; remark: listed apart in the source

- EC50 (nM), cAMP production (human GLP-1 receptor [1]): > 100 nM
B1: SEQ. ID. NO: 13 (peptide)
peptide: HXEGTFTSDXSXYLEXQAAXEFIXWLVXGRG
modifications: C-terminal primary amide; non-natural residues are marked only by a key given as a drawing (CHEM-US-00002/00003), positions not readable in the text

- cAMP production, AVERAGES at M Concentrations: -7 (human GLP-1 receptor [2]): 100
- cAMP production, AVERAGES at M Concentrations: -8 (human GLP-1 receptor [2]): 99.2
- cAMP production, AVERAGES at M Concentrations: -9 (human GLP-1 receptor [2]): 42.8
- cAMP production, AVERAGES at M Concentrations: -10 (human GLP-1 receptor [2]): 18
- cAMP production, AVERAGES at M Concentrations: -12 (human GLP-1 receptor [2]): 5.69
- cAMP production, AVERAGES at M Concentrations: -13 (human GLP-1 receptor [2]): 5.69
- EC50 nM, cAMP production in HEK293 cells (human GLP-1 receptor [3]): > 100 nM
Binder: HAEGTFT[ACPC″]DVS[ACPC″]YLE[ACPC″]QAA[ACPC″]EFI[ACPC″]WLV[APC″]GRG-NH2 (reading uncertain) [α/β-peptide SEQ. ID. NO: 6]

- EC50 (nM), cAMP production (human GLP-1 receptor [2]): 3.2 nM
- cAMP production, AVERAGES at M Concentrations: -7 (human GLP-1 receptor [2]): 88.3
- cAMP production, AVERAGES at M Concentrations: -8 (human GLP-1 receptor [2]): 63
- cAMP production, AVERAGES at M Concentrations: -9 (human GLP-1 receptor [2]): 35
- cAMP production, AVERAGES at M Concentrations: -10 (human GLP-1 receptor [2]): 4.47
- cAMP production, AVERAGES at M Concentrations: -11 (human GLP-1 receptor [2]): 3.5
- cAMP production, AVERAGES at M Concentrations: -12 (human GLP-1 receptor [2]): 2.81
- cAMP production, AVERAGES at M Concentrations: -13 (human GLP-1 receptor [2]): 3.83
- EC50 nM, cAMP production in HEK293 cells (human GLP-1 receptor [3]): 3.2 nM
- Max Response (% GLP-1 max), cAMP production (human GLP-1 receptor [3]): 88 % GLP-1 max
Binder: H[Aib]EGTFTSD[Aib]S[ACPC]YLE[ACPC]QAA[ACPC]EFI[ACPC]WLV[APC]GRG-NH2 [α/β-Peptide SEQ. ID. NO: 7]
